# B1: ADP-ribosylation factor 6 (Mus musculus), P62331 (parent)
# chain: MGKVLSKIFGNKEMRILMLGLDAAGKTTILYKLKLGQSVTTIPTVGFNVETVTYKNVKFNVWDVGGQDKIRPLWRHYYTGTQGLIFVVDCADRDRIDEARQELHRIINDREMRDAIILIFANKQDLPDAMKPHEIQEKLGLTRIRDRNWYVQPSCATSGDGLYEGLTWLTSNYKS
# partner: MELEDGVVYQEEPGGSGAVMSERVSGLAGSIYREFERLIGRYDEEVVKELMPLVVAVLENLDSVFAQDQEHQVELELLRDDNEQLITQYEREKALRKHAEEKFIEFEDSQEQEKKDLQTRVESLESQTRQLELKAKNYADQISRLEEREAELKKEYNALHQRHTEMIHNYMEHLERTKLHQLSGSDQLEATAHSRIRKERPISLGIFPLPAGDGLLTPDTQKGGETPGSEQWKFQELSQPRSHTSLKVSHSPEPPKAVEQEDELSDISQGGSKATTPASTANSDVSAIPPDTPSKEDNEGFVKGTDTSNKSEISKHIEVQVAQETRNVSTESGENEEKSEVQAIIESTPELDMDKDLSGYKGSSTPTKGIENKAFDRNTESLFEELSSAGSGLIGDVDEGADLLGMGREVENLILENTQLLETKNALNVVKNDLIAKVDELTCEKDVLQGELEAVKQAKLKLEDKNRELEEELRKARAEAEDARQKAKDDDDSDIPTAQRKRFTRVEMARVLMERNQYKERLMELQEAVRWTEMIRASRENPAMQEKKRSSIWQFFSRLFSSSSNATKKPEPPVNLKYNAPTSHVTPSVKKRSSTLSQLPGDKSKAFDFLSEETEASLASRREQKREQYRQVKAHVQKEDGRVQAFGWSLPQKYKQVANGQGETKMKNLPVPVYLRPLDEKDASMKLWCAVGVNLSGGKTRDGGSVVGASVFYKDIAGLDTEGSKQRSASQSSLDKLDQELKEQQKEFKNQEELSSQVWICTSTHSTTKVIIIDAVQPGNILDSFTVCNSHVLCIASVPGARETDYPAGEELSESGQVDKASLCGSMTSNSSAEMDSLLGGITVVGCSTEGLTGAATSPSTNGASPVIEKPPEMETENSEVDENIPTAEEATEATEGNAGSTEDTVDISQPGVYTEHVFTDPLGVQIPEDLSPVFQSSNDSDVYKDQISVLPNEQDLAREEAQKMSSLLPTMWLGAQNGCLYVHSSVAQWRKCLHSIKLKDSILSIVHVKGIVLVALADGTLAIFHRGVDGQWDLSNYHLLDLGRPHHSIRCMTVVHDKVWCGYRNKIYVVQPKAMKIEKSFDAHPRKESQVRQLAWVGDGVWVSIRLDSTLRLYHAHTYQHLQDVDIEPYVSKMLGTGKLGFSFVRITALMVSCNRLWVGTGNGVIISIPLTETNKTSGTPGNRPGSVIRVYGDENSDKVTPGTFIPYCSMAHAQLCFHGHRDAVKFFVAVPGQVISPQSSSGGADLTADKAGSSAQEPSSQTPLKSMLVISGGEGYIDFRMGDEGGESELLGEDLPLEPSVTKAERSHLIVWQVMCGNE
# B2: ADP-ribosylation factor 6 (Mus musculus), P62331 (parent)
# chain: B1 chain
# partner: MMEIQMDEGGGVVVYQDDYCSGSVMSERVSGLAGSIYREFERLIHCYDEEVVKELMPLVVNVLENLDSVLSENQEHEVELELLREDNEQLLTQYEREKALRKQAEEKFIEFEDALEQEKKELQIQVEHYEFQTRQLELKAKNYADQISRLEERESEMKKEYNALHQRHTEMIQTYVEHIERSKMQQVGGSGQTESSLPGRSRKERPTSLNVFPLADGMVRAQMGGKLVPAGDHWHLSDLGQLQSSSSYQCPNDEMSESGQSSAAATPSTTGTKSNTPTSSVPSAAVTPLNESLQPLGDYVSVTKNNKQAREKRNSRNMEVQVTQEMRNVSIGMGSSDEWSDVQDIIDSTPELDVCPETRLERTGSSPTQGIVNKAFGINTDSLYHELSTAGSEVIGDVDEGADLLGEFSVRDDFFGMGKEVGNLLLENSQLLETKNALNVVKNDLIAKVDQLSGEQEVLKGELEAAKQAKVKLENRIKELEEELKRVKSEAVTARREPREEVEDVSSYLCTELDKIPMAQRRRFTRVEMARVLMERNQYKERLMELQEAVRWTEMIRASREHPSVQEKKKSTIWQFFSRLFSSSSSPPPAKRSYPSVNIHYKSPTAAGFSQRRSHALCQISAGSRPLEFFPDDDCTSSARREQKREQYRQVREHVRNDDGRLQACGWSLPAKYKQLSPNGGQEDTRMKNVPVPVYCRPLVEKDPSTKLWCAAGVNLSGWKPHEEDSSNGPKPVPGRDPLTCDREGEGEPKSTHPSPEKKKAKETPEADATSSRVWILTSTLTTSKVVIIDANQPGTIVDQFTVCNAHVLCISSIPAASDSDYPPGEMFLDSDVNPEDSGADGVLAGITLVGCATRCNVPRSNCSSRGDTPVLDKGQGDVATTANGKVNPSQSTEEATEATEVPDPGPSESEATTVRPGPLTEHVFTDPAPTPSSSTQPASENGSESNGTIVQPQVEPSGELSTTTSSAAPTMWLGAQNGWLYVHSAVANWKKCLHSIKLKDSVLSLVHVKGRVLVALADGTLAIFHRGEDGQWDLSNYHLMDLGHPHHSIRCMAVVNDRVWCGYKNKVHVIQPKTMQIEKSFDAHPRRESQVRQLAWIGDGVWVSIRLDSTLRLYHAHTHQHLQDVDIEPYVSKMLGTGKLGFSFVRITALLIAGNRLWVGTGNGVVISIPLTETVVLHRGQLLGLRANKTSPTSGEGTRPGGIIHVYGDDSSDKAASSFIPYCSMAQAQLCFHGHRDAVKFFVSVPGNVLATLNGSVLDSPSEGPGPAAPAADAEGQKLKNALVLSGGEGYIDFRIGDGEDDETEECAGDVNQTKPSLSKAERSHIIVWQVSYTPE
# Variants of: B1
# Settings: with jip4_mouse Spag9, Q58A65
row,Variant,effect of a mutation on the interaction
1,L19V,decreasing interaction

# Variants of: B1
# Settings: with jip4_mouse Spag9, Q58A65
# Remark: another data set of the same source
row,Variant,effect of a mutation on the interaction
1,K58C,disrupting interaction
2,N60T,disrupting interaction
3,T53E,disrupting interaction

# Variants of: B1
# Settings: with jip4_mouse Spag9, Q58A65
# Remark: another data set of the same source
row,Variant,effect of a mutation on the interaction
1,K58C,decreasing interaction

# Variants of: B1
# Settings: with jip4_mouse Spag9, Q58A65
# Remark: another data set of the same source
row,Variant,effect of a mutation on the interaction
1,N60T,decreasing interaction

# Variants of: B1
# Settings: with jip4_mouse Spag9, Q58A65
# Remark: another data set of the same source
row,Variant,effect of a mutation on the interaction
1,T27N,disrupting interaction

# Variants of: B1
# Settings: with jip4_mouse Spag9, Q58A65
# Remark: another data set of the same source
row,Variant,effect of a mutation on the interaction
1,T27N,decreasing interaction

# Variants of: B1
# Settings: with jip4_mouse Spag9, Q58A65
# Remark: another data set of the same source
row,Variant,effect of a mutation on the interaction
1,T53E,decreasing interaction

# Variants of: B2
# Settings: with jip3_mouse Mapk8ip3, Q9ESN9
row,Variant,effect of a mutation on the interaction
1,N60T,disrupting interaction
2,K58C,disrupting interaction
3,T53E,disrupting interaction

# Variants of: B2
# Settings: with jip3_mouse Mapk8ip3, Q9ESN9
# Remark: another data set of the same source
row,Variant,effect of a mutation on the interaction
1,T27N,decreasing interaction

# Variants of: B2
# Settings: with jip3_mouse Mapk8ip3, Q9ESN9
# Remark: another data set of the same source
row,Variant,effect of a mutation on the interaction
1,T27N,disrupting interaction

# Variants of: B2
# Settings: with jip3_mouse Mapk8ip3, Q9ESN9
# Remark: another data set of the same source
row,Variant,effect of a mutation on the interaction
1,L19V,decreasing interaction

# Variants of: B2
# Settings: with jip3_mouse Mapk8ip3, Q9ESN9
# Remark: another data set of the same source
row,Variant,effect of a mutation on the interaction
1,K58C,decreasing interaction

# Variants of: B2
# Settings: with jip3_mouse Mapk8ip3, Q9ESN9
# Remark: another data set of the same source
row,Variant,effect of a mutation on the interaction
1,T53E,decreasing interaction

# Reference: IntAct's records for PubMed 20493856
